Results taken from the supplement of paper PMC10567573.
± gives the standard deviation.

Experiment: protein stability index of a GFP-peptide fusion (GPS, HEK-293T) (PSI 1-6); higher = more stable
[1] = treatment: DMSO, c terminus: a fixed tail appended
[2] = treatment: MLN4924 1 uM, 8 h, c terminus: a fixed tail appended
[3] = treatment: DMSO, c terminus: native
[4] = treatment: MLN4924 1 uM, 8 h, c terminus: native
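Note: 24-mer peptide tiles fused after GFP, lentivirally expressed, FACS-sorted into six equal bins by GFP/DsRed ratio, decoded by Illumina sequencing, PSI is the read-weighted mean bin number.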

QGFRTVLELVINYQQLCIYWTKYY [OAS1]
protein stability index [1]: 2.96 ± 0.33
protein stability index [2]: 2.79 ± 0.51

QTMAGSSPNTPQPVPEQSALCQGL [FAM104A]
protein stability index [1]: 4.75 ± 0.19
protein stability index [2]: 4.84 ± 0.17

PQGSGFCLGQLNLEQRSESVRRTR [SMAD6]
protein stability index [1]: 4.39 ± 0.26
protein stability index [2]: 4.67 ± 0.43

HEDHMVNLRYGFTKEVMNKYKVHG [PPEF2]
protein stability index [1]: 3.24 ± 0.51
protein stability index [2]: 3.58 ± 0.53

TPWALALLRTFDAGEFTGWEKVGS [RIPK4]
protein stability index [1]: 2.29 ± 0.61
protein stability index [2]: 1.49 ± 0.13

HAQTFVALCATDVKFISNPPSMVA [CCND1]
protein stability index [1]: 2.11 ± 0.29
protein stability index [2]: 2.08 ± 0.46

TVMEKCSDGWWRGSYNGQIGWFPS [NCK2]
protein stability index [1]: 2.45 ± 0.51
protein stability index [2]: 2.26 ± 0.37

ESFGQNYPEEADGTLDCISMALTC [RBBP5]
protein stability index [1]: 3.72 ± 0.26
protein stability index [2]: 3.53 ± 0.18

PSLEDLFDLCDRTFSLKTVLMIAI [CSNK1G3]
protein stability index [1]: 2.5 ± 0.42
protein stability index [2]: 2.38 ± 0.43

TFICYVASSASAFLTAPLLEFLLA [CMTM3]
protein stability index [1]: 3.36 ± 0.35
protein stability index [2]: 2.98 ± 0.39

TPASNHLPGWEDIESKIPLNMEEP [SLC19A2]
protein stability index [1]: 5.28 ± 0.21
protein stability index [2]: 5.44 ± 0.066

NYGGVIKNYFQHREFSFTLKDDIY [PRIM1]
protein stability index [1]: 2.13 ± 0.2
protein stability index [2]: 2.25 ± 0.08

VASNSELVQSSRSEVTELRRVLQG [KRT16]
protein stability index [1]: 4.33 ± 0.36
protein stability index [2]: 4.47 ± 0.27

KCKPSLPAEAEGAAQELENQMKER [TMEM120A]
protein stability index [1]: 5.42 ± 0.19
protein stability index [2]: 5.49 ± 0.2

ERPGAEGAPLLPPPLPPPSPPGSG [ACBD3]
protein stability index [1]: 5.54 ± 0.24
protein stability index [2]: 5.47 ± 0.19

TLQSITWQMIEQIQFIKLFGMAKI [HNF4A]
protein stability index [1]: 2.86 ± 0.6
protein stability index [2]: 2.87 ± 0.42

VSEFLKVAEQVGIDKGDIPDLTQA [SNAP91]
protein stability index [1]: 4.18 ± 0.45
protein stability index [2]: 4.13 ± 0.44

RYEEANNNQYSEGVQREAQRIALR [KMT2E]
protein stability index [1]: 4.3 ± 0.25
protein stability index [2]: 4.59 ± 0.2

LAVGTDLYGQRNSAPEQELLVQDA [GFOD1]
protein stability index [1]: 4.66 ± 0.22
protein stability index [2]: 4.69 ± 0.36

VPLWGQLLLFLVFVIVLFFIYHFM [EMD]
protein stability index [1]: 2.41 ± 0.17
protein stability index [2]: 2.17 ± 0.47

NLDTEELCEYFSQHLGEYENVLAA [NECAB1]
protein stability index [1]: 2.83 ± 0.32
protein stability index [2]: 3.3 ± 0.66

GIQPGQEPPVTMIFMGYQNVEDEA [PALM]
protein stability index [1]: 3.94 ± 0.35
protein stability index [2]: 4.02 ± 0.24

RQLYAVNRRLRALEEQGATWRHRE [FATE1]
protein stability index [1]: 3.52 ± 0.3
protein stability index [2]: 3.56 ± 0.15

GYAVNVFDIQQGFDNPQVRFFLGD [NSDHL]
protein stability index [1]: 2.36 ± 0.38
protein stability index [2]: 2.57 ± 1.4

VTLRRGLRSRASRCRPRSLIDYKS [FAM189A2]
protein stability index [1]: 2.12 ± 0.33
protein stability index [2]: 2.23 ± 0.39

IKLLQSSGADFHKKDKCGRTPLHY [ANKRD44]
protein stability index [1]: 2.42 ± 0.2
protein stability index [2]: 2.6 ± 0.38

LDGLIQQCGETMKETVNVKTVCGY [GMCL1]
protein stability index [1]: 3.1 ± 0.33
protein stability index [2]: 3.37 ± 0.36

LERVRVSCTIIFLASIFQLAMWTT [TMEM175]
protein stability index [1]: 3.24 ± 0.4
protein stability index [2]: 3.29 ± 0.23

FPRDHTSLALVQNGDVSAPSAILR [ANKRD40]
protein stability index [1]: 3.72 ± 0.34
protein stability index [2]: 3.97 ± 0.2

LQGTESLNRATQSIERSHRIATET [VTI1B]
protein stability index [1]: 4.65 ± 0.18
protein stability index [2]: 4.76 ± 0.14

ERERLYPFSECGEAVSDSTPFLTN [ZNF263]
protein stability index [1]: 4.16 ± 0.16
protein stability index [2]: 4.11 ± 0.27

GGIKTVDMRDPTYRPLKQELQGLD [SPSB1]
protein stability index [1]: 4.18 ± 0.37
protein stability index [2]: 4.33 ± 0.27

IKIIKNKKAFLNQAQIELRLLELM [DYRK1B]
protein stability index [1]: 2.75 ± 0.47
protein stability index [2]: 2.6 ± 0.43

VKVPTTLAEYCVKTKAPAPDEGSD [CDC34]
protein stability index [1]: 5.07 ± 0.43
protein stability index [2]: 4.97 ± 0.12

PIDPAAWVSHTAAMTGTFPAYGMS [DVL3]
protein stability index [1]: 2.73 ± 0.36
protein stability index [2]: 2.75 ± 0.18

LICLKKNHEEEVNTLRSQLGDRLN [KRT34]
protein stability index [1]: 3.33 ± 0.21
protein stability index [2]: 3.45 ± 0.37

AMFLGDAAAHWYGGAEMRTQHWPI [MYORG]
protein stability index [1]: 2.41 ± 0.81
protein stability index [2]: 2.17 ± 0.25

NSQNEVNGWTCLHWACKRNHGQVV [ANKRD40]
protein stability index [1]: 2.57 ± 0.24
protein stability index [2]: 2.65 ± 0.24

PKPDRLLVLKVLWNDFLMCYSSRP [SLC19A2]
protein stability index [1]: 2.89 ± 0.2
protein stability index [2]: 3.08 ± 0.46

SVTEYRLDGHTISDLSRSSRGELI [MYBL2]
protein stability index [1]: 3.67 ± 0.41
protein stability index [2]: 3.67 ± 0.38

TGIVSVAFLLLPLPDELGSQLPQV [MOSPD3]
protein stability index [1]: 2.75 ± 0.59
protein stability index [2]: 2.72 ± 0.86

TCRPPSSSESSSDSDNSGGGGGGG [ANKRD17]
protein stability index [1]: 5.44 ± 0.24
protein stability index [2]: 5.43 ± 0.26

PNGLEAAYEFADRDEVRFFKGNKY [MMP1]
protein stability index [1]: 3.74 ± 0.44
protein stability index [2]: 3.83 ± 0.3

TTNVGRYPVGRFPSLHVVKVLLDC [FEM1A]
protein stability index [1]: 2.52 ± 0.4
protein stability index [2]: 2.48 ± 0.27

VEVGDKTHWAVGVCRDSVSRKGEL [TRIM39]
protein stability index [1]: 3.06 ± 0.15
protein stability index [2]: 3.2 ± 0.17

PEPPAAVDFLEPDSGTCPEVDEEG [FCHO1]
protein stability index [1]: 5.48 ± 0.26
protein stability index [2]: 5.54 ± 0.21

GYQMLGNVVTIGLAFFPFLHRLFR [PHTF1]
protein stability index [1]: 3.71 ± 0.23
protein stability index [2]: 3.68 ± 0.34

LPSLVLARLVFVPLLLLCNIKPRR [SLC29A1]
protein stability index [1]: 2.79 ± 0.57
protein stability index [2]: 2.73 ± 0.41

LFVGVDCFLLTAMAYDQFLAICRP [OR3A1]
protein stability index [1]: 3.63 ± 0.6
protein stability index [2]: 3.13 ± 0.071

WEQKVLVIVMTTRFEEGGRRKCGQ [PTPN9]
protein stability index [1]: 2.28 ± 0.2
protein stability index [2]: 2.28 ± 0.34

RAGGWVSGEEFYMLTRRVLQLETV [PKD2L1]
protein stability index [1]: 1.98 ± 0.14
protein stability index [2]: 2.5 ± 0.35

NRRMVGPDVIPLPHIYGARIKGVE [FAM189A2]
protein stability index [1]: 3.19 ± 0.11
protein stability index [2]: 3.15 ± 0.27

LYSQLLQAYKWSNKLQYHAGLASG [MED27]
protein stability index [1]: 3.28 ± 0.55
protein stability index [2]: 2.67 ± 0.71

QNLLREKIMKLPLPESLKAYLTYF [PCMTD1]
protein stability index [1]: 2.49 ± 0.53
protein stability index [2]: 2.12 ± 0.36

FTEKLWPLFYPGIRAGRKNAAPLT [TRIM39]
protein stability index [1]: 2.59 ± 0.74
protein stability index [2]: 2.25 ± 0.16

PQAPAPATATDTFEAAPPAPAPAP [CEBPB]
protein stability index [1]: 5.28 ± 0.51
protein stability index [2]: 5.38 ± 0.35

WYFWGETFQNSVFVATFLRYAVVL [SCD]
protein stability index [1]: 3.37 ± 0.33
protein stability index [2]: 3.36 ± 0.85

STMLGVFREDPKTREEFLTLIRS [GCH1]
protein stability index [3]: 2.38 ± 0.64
protein stability index [4]: 2.84 ± 0.34

LHLASDFFLKHPDKDVRLLVACCL [PDS5B]
protein stability index [1]: 2.23 ± 0.79
protein stability index [2]: 2.39 ± 0.43

PHIYGARIKGVEVFCPLDPPPPYE [FAM189A2]
protein stability index [1]: 2.96 ± 0.17
protein stability index [2]: 3.04 ± 0.19

YVPEKVKKAEKKLEENPYDLDAWS [CSTF3]
protein stability index [1]: 3.06 ± 0.62
protein stability index [2]: 3.26 ± 0.87

TAQVQKDARIGEAEAKRDAGIREA [FLOT1]
protein stability index [1]: 5.34 ± 0.16
protein stability index [2]: 5.31 ± 0.19

ADGDGGGGQCCRRQDSPSPDFYKQ [PCDHGC5]
protein stability index [1]: 4.67 ± 0.25
protein stability index [2]: 4.44 ± 0.4

LEKSNKNFSKKIQQIHVVSQFKIL [VPS39]
protein stability index [1]: 2.17 ± 0.24
protein stability index [2]: 2.07 ± 0.26

IEKVSVSTQTKKLSASSPRMLHRS [ZMYND11]
protein stability index [1]: 3.96 ± 0.23
protein stability index [2]: 4.03 ± 0.34

SDTESTDLPSSTPVANSGTKPKTT [DLC1]
protein stability index [1]: 5.47 ± 0.26
protein stability index [2]: 5.49 ± 0.22

ADPLQLNKALSIILHLICLLEKVP [FEM1C]
protein stability index [1]: 3 ± 0.24
protein stability index [2]: 3.16 ± 0.9

KSNFRVQLFEDPTVDKEVEIRKKV [MNAT1]
protein stability index [1]: 4.65 ± 0.33
protein stability index [2]: 4.69 ± 0.38

GRCATRAFHRKSHSLDLNISEKLT [RNF180]
protein stability index [1]: 3.73 ± 0.43
protein stability index [2]: 3.63 ± 0.42

LGRTGLYPSYKVREKIETVKYPTY [FUT8]
protein stability index [1]: 2.42 ± 0.12
protein stability index [2]: 2.51 ± 0.14

GTHPEDHQGHSDQHHHHHHHHHGR [RHOBTB2]
protein stability index [1]: 4.9 ± 0.16
protein stability index [2]: 5.01 ± 0.26

SDDHIRVIVQLHKLRHLDISRDRL [ZER1]
protein stability index [1]: 2.38 ± 0.18
protein stability index [2]: 2.53 ± 0.11

LMDGGDLPSVTDIRRPRLYLLQWL [PLK2]
protein stability index [1]: 2.48 ± 0.17
protein stability index [2]: 2.5 ± 0.27

ALHHVHTHLILHRDLKTQNILLDK [NEK8]
protein stability index [1]: 2.25 ± 0.19
protein stability index [2]: 2.29 ± 0.25

VQFSHHVFLNLHTLKFYCLPDNYE [USP39]
protein stability index [1]: 2.89 ± 0.61
protein stability index [2]: 3.04 ± 0.74

AMFPETLDEGMQIPSTQFDAAHPT [CTNNB1]
protein stability index [1]: 4.5 ± 0.091
protein stability index [2]: 4.49 ± 0.28

HARNGLSLKEEHRAYDLLRAASEN [IKZF1]
protein stability index [1]: 3.73 ± 0.28
protein stability index [2]: 4.03 ± 0.35

EGSLWAVGTESQGRDWRHLPTITS [PXN]
protein stability index [1]: 3.23 ± 0.16
protein stability index [2]: 3.34 ± 0.16

RSEPIRPIDPAAWVSHTAAMTGTF [DVL3]
protein stability index [1]: 2.99 ± 0.09
protein stability index [2]: 3.04 ± 0.23

INGLRRVLDELTLARADLEMQIEN [KRT17]
protein stability index [1]: 3.1 ± 0.45
protein stability index [2]: 2.82 ± 0.38

RMNDLHYLNLDTWEWNELIPQGIC [KLHDC2]
protein stability index [1]: 2.3 ± 0.58
protein stability index [2]: 2.31 ± 0.24

KEVMLFGHGTRKRVPLGRLELLEE [RSAD1]
protein stability index [1]: 3.6 ± 0.19
protein stability index [2]: 3.59 ± 0.28

DKSEYLEMEEGVKESLCAKEEKCQ [KCNA4]
protein stability index [1]: 5.68 ± 0.1
protein stability index [2]: 5.54 ± 0.19

LHVWQITWAMRQRGTHAVVGVATA [SPSB1]
protein stability index [1]: 2.58 ± 0.31
protein stability index [2]: 2.51 ± 0.64

VLKAHNEYRQKHGVPPLKLCKNLN [GLIPR2]
protein stability index [1]: 2.92 ± 0.17
protein stability index [2]: 3.33 ± 0.18

VELLLARKISVNAKDEDQWTALHF [RIPK4]
protein stability index [1]: 2.91 ± 0.82
protein stability index [2]: 1.83 ± 0.4

MALEPNTTFLRKSLKAALKHLGP [FANCE]
protein stability index [3]: 2.48 ± 0.25
protein stability index [4]: 2.33 ± 0.17

KDRRFAYGRSDVVVLCFSIANPNS [RHOBTB1]
protein stability index [1]: 2.74 ± 0.54
protein stability index [2]: 2.34 ± 0.46

GPSTPSPVAAQFTSEGTTLSGVDL [FCHO1]
protein stability index [1]: 5.2 ± 0.4
protein stability index [2]: 4.96 ± 0.53
